Consider three proteins from patent publication US7001748.

Series [1] addresses T1, acyl-ACP4(4) adduct 4b ((2R,3S)-diketide on ACP4(4)), Q03132.
T1 chain: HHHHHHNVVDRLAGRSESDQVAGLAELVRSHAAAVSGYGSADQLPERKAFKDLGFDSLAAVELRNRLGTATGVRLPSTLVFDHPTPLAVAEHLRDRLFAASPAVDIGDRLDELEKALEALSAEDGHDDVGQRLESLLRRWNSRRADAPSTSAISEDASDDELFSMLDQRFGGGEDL

Series [2] concerns the target T2, acyl-ACP4(4) adduct 4c ((2S,3S)-diketide on ACP4(4)), Q03132.
T2 chain: T1 chain

Series [3] deals with T3, acyl-ACP4(4) adduct 4d ((2R,3R)-diketide on ACP4(4)), Q03132.
T3 chain: T1 chain

For series [4], the target named is T4, acyl-ACP4(4) adduct 4a ((2S,3R)-diketide on ACP4(4)), Q03132.
T4 chain: T1 chain

B1: (5)M3+TE (derivative of M3+TE where the natural N-terminal linker has been replaced with the N-terminal linker of module 5 of DEBS; plasmid pST132) (protein)
chain: MSGDNGMTEEKLRRYLKRTVTELDSVTARLREVEHRAGEPIAIVSMACRLPGGVNTPQRLWELLREGGETLSGFPTDRGWDLARLHHPDPDNPGTSYVDKGGFLDDAAGFDAEFFGVSPREAAAMDPQQRLLLETSWELVENAGIDPHSLRGTATGVFLGVAKFGYGEDTAAAEDVEGYSVTGVAPAVASGRISYTMGLEGPSISVDTACSSSLVALHLAVESLRKGESSMAVVGGAAVMATPGVFVDFSRQRALAADGRSKAFGAGADGFGFSEGVTLVLLERLSEARRNGHEVLAVVRGSALNQDGASNGLSAPSGPAQRRVIRQALESCGLEPGDVDAVEAHGTGTALGDPIEANALLDTYGRDRDADRPLWLGSVKSNIGHTQAAAGVTGLLKVVLALRNGELPATLHVEEPTPHVDWSSGGVALLAGNQPWRRGERTRRARVSAFGISGTNAHVIVEEAPEREHRETTAHDGRPVPLVVSARTTAALRAQAAQIAELLERPDADLAGVGLGLATTRARHEHRAAVVASTREEAVRGLREIAAGAATADAVVEGVTEVDGRNVVFLFPGQGSQWAGMGAELLSSSPVFAGKIRACDESMAPMQDWKVSDVLRQAPGAPGLDRVDVVQPVLFAVMVSLAELWRSYGVEPAAVVGHSQGEIAAAHVAGALTLEDAAKLVVGRSRLMRSLSGEGGMAAVALGEAAVRERLRPWQDRLSVAAVNGPRSVVVSGEPGALRAFSEDCAAEGIRVRDIDVDYASHSPQIERVREELLETTGDIAPRPARVTFHSTVESRSMDGTELDARYWYRNLRETVRFADAVTRLAESGYDAFIEVSPHPVVVQAVEEAVEEADGAEDAVVVGSLHRDGGDLSAFLRSMATAHVSGVDIRWDVALPGAAPFALPTYPFQRKRYWLQPAAPAAASDELAYRVSWTPIEKPESGNLDGDWLVVTPLISPEWTEMLCEAINANGGRALRCEVDTSASRTEMAQAVAQAGTGFRGVLSLLSSDESACRPGVPAGAVGLLTLVQALGDAGVDAPVWCLTQGAVRTPADDDLARPAQTTAHGFAQVAGLELPGRWGGVVDLPESVDDAALRLLVAVLRGGGRAEDHLAVRDGRLHGRRVVRASLPQSGSRSWTPHGTVLVTGAASPVGDQLVRWLADRGAERLVLAGACPGDDLLAAVEEAGASAVVCAQDAAALREALGDEPVTALVHAGTLTNFGSISEVAPEEFAETIAAKTALLAVLDEVLGDRAVEREVYCSSVAGIWGGAGMAAYAAGSAYLDALAEHHRARGRSCTSVAWTPWALPGGAVDDGYLRERGLRSLSADRAMRTWERVLAAGPVSVAVADVDWPVLSEGFAATRPTALFAELAGRGGQAEAEPDSGPTGEPAQRLAGLSPDEQQENLLELVANAVAEVLGHESAAEINVRRAFSELGLDSLNAMALRKRLSASTGLRLPASLVFDHPTVTALAQHLRARLDSGTPAREASSALRDGYRQAGVSGRVRSYLDLLAGLSDFREHFDGSDGFSLDLVDMADGPGEVTVICCAGTAAISGPHEFTRLAGALRGIAPVRAVPQPGYEEGEPLPSSMAAVAAVQADAVIRTQGDKPFVVAGHSAGALMAYALATELLDRGHPPRGVVLIDVYPPGHQDAMNAWLEELTATLFDRETVRMDDTRLTALGAYDRLTGQWRPRETGLPTLLVSAGEPMGPWPDDSWKPTWPFEHDTVAVPGDHFTMVQEHADAIARHIDAWLGGGNSHHHHHH
As for B1, the “diketide incorporation from acyl-ACP (product formation)” value in series [1], in series [2], in series [3] and in series [4] was “all four acyl-ACP adducts were observed to be substrates for (5)M3+TE” throughout.

B2: M3+TE (module 3 of DEBS with its own N-terminal linker and with the thioesterase fused to the C-terminus; plasmid pRSG34) (protein)
chain: MTDSEKVAEYLRRATLDLRAARQRIRELESDIAIVSMACRLPGGVNTPQRLWELLREGGETLSGFPTDRGWDLARLHHPDPDNPGTSYVDKGGFLDDAAGFDAEFFGVSPREAAAMDPQQRLLLETSWELVENAGIDPHSLRGTATGVFLGVAKFGYGEDTAAAEDVEGYSVTGVAPAVASGRISYTMGLEGPSISVDTACSSSLVALHLAVESLRKGESSMAVVGGAAVMATPGVFVDFSRQRALAADGRSKAFGAGADGFGFSEGVTLVLLERLSEARRNGHEVLAVVRGSALNQDGASNGLSAPSGPAQRRVIRQALESCGLEPGDVDAVEAHGTGTALGDPIEANALLDTYGRDRDADRPLWLGSVKSNIGHTQAAAGVTGLLKVVLALRNGELPATLHVEEPTPHVDWSSGGVALLAGNQPWRRGERTRRARVSAFGISGTNAHVIVEEAPEREHRETTAHDGRPVPLVVSARTTAALRAQAAQIAELLERPDADLAGVGLGLATTRARHEHRAAVVASTREEAVRGLREIAAGAATADAVVEGVTEVDGRNVVFLFPGQGSQWAGMGAELLSSSPVFAGKIRACDESMAPMQDWKVSDVLRQAPGAPGLDRVDVVQPVLFAVMVSLAELWRSYGVEPAAVVGHSQGEIAAAHVAGALTLEDAAKLVVGRSRLMRSLSGEGGMAAVALGEAAVRERLRPWQDRLSVAAVNGPRSVVVSGEPGALRAFSEDCAAEGIRVRDIDVDYASHSPQIERVREELLETTGDIAPRPARVTFHSTVESRSMDGTELDARYWYRNLRETVRFADAVTRLAESGYDAFIEVSPHPVVVQAVEEAVEEADGAEDAVVVGSLHRDGGDLSAFLRSMATAHVSGVDIRWDVALPGAAPFALPTYPFQRKRYWLQPAAPAAASDELAYRVSWTPIEKPESGNLDGDWLVVTPLISPEWTEMLCEAINANGGRALRCEVDTSASRTEMAQAVAQAGTGFRGVLSLLSSDESACRPGVPAGAVGLLTLVQALGDAGVDAPVWCLTQGAVRTPADDDLARPAQTTAHGFAQVAGLELPGRWGGVVDLPESVDDAALRLLVAVLRGGGRAEDHLAVRDGRLHGRRVVRASLPQSGSRSWTPHGTVLVTGAASPVGDQLVRWLADRGAERLVLAGACPGDDLLAAVEEAGASAVVCAQDAAALREALGDEPVTALVHAGTLTNFGSISEVAPEEFAETIAAKTALLAVLDEVLGDRAVEREVYCSSVAGIWGGAGMAAYAAGSAYLDALAEHHRARGRSCTSVAWTPWALPGGAVDDGYLRERGLRSLSADRAMRTWERVLAAGPVSVAVADVDWPVLSEGFAATRPTALFAELAGRGGQAEAEPDSGPTGEPAQRLAGLSPDEQQENLLELVANAVAEVLGHESAAEINVRRAFSELGLDSLNAMALRKRLSASTGLRLPASLVFDHPTVTALAQHLRICCAGTAAISGPHEFTRLAGALRGIAPVRAVPQPGYEEGEPLPSSMAAVAAVQADAVIRTQGDKPFVVAGHSAGALMAYALATELLDRGHPPRGVVLIDVYPPGHQDAMNAWLEELTATLFDRETVRMDDTRLTALGAYDRLTGQWRPRETGLPTLLVSAGEPMGPWPDDSWKPTWPFEHDTVAVPGDHFTMVQEHADAIARHIDAWHHHHHH
Regarding B2, the “diketide incorporation from acyl-ACP (product formation)” value in series [1], in series [2], in series [3] and in series [4] was “no product formation was observed from the incubation of any of the acyl-ACP adducts with (3)M3+TE” in each case.

B3: (5)M2+TE (N-ERL-M2+TE; plasmid pRSG64) (protein)
chain: MSGDNGMTEEKLRRYLKRTVTELDSVTARLREVEHRAGEIAIVGMACRLPGEVDSPERLWELITSGRDSAAEVPDDRGWVPDELMASDAAGTRAHGNFMAGAGDFDAAFFGISPREALAMDPQQRQALETTWEALESAGIPPETLRGSDTGVFVGMSHQGYATGRPRPEDGVDGYLLTGNTASVASGRIAYVLGLEGPALTVDTACSSSLVALHTACGSLRDGDCGLAVAGGVSVMAGPEVFTEFSRQGALSPDGRCKPFSDEADGFGLGEGSAFVVLQRLSDARREGRRVLGVVAGSAVNQDGASNGLSAPSGVAQQRVIRRAWARAGITGADVAVVEAHGTGTRLGDPVEASALLATYGKSRGSSGPVLLGSVKSNIGHAQAAAGVAGVIKVLLGLERGVVPPMLCRGERSGLIDWSSGEIELADGVREWSPAADGVRRAGVSAFGVSGTNAHVIIAEPPEPEPVPQPRRMLPATGVVPVVLSARTGAALRAQAGRLADHLAAHPGIAPADVSWTMARARQHFEERAAVLAADTAEAVHRLRAVADGAVVPGVVTGSASDGGSVFVFPGQGAQWEGMARELLPVPVFAESIAECDAVLSEVAGFSVSEVLEPRPDAPSLERVDVVQPVLFAVMVSLARLWRACGAVPSAVIGHSQGEIAAAVVAGALSLEDGMRVVARRSRAVRAVAGRGSMLSVRGGRSDVEKLLADDSWTGRLEVAAVNGPDAVVVAGDAQAAREFLEYCEGVGIRARAIPVDYASHTAHVEPVRDELVQALAGITPRRAEVPFFSTLTGDFLDGTELDAGYWYRNLRHPVEFHSAVQALTDQGYATFIEVSPHPVLASSVQETLDDAESDAAVLGTLERDAGDADRFLTALADAHTRGVAVDWEAVLGRAGLVDLPGYPFQGKRFWLLPDRTTPRDELDGWFYRVDWTEVPRSEPAALRGRWLVVVPEGHEEDGWTVEVRSALAEAGAEPEVTRGVGGLVGDCAGVVSLLALEGDGAVQTLVLVRELDAEGIDAPLWTVTFGAVDAGSPVARPDQAKLWGLGQVASLERGPRWTGLVDLPHMPDPELRGRLTAVLAGSEDQVAVRADAVRARRLSPAHVTATSEYAVPGGTILVTGGTAGLGAEVARWLAGRGAEHLALVSRRGPDTEGVGDLTAELTRLGARVSVHACDVSSREPVRELVHGLIEQGDVVRGVVHAAGLPQQVAINDMDEAAFDEVVAAKAGGAVHLDELCSDAELFLLFSSGAGVWGSARQGAYAAGNAFLDAFARHRRGRGLPATSVAWGLWAAGGMTGDEEAVSFLRERGVRAMPVPRALAALDRVLASGETAVVVTDVDWPAFAESYTAARPRPLLDRIVTTAPSERAGEPETESLRDRLAGLPRAERTAELVRLVRTSTATVLGHDDPKAVRATTPFKELGFDSLAAVRLRNLLNAATGLRLPSTLVFDHPNASAVAGFLDICCAGTAAISGPHEFTRLAGALRGIAPVRAVPQPGYEEGEPLPSSMAAVAAVQADAVIRTQGDKPFVVAGHSAGALMAYALATELLDRGHPPRGVVLIDVYPPGHQDAMNAWLEELTATLFDRETVRMDDTRLTALGAYDRLTGQWRPRETGLPTLLVSAGEPMGPWPDDSWKPTWPFEHDTVAVPGDHFTMVQEHADAIARHIDAWHHHHHH
For the protein B3, the “diketide incorporation from acyl-ACP (triketide lactone formation)” value in series [1] was “Both 4a and 4b were accepted and extended by all three modules”; in series [2], 4c and 4d were also substrates for the three modules; in series [3], 4c and 4d were also substrates for the three modules; in series [4], “Both 4a and 4b were accepted and extended by all three modules”.
